Source: article PMC3216068

Molecular target: SUMO1 (human) (UniProt P63165)
Assay: SPR; preliminary BiaCore analyses, done by Affina Biotechnologies as a paid service

UniProt P63165, sequence (P63165 1-97): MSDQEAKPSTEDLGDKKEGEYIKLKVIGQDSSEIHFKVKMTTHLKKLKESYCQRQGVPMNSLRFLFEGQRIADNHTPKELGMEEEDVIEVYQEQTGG

- Kd: 12.8 nM
Substance: Ulp1(3)^(C580S) as used in the BiaCore analyses (from UniProt Q02724 341-621) (domain or fragment)
